Data reported in article PMC3285605.

Experiments:
[1] = biological target: soluble form of vesicular stomatitis virus (VSV) glycoprotein G ectodomain (Gth, aa residues 1–422) (vesicular stomatitis virus (Mudd-Summer strain, Indiana serotype)); test: AUC; sedimentation velocity, pH 6.7, Gth at 1.6 mg/ml, 45,000 rpm, 15°C
[2] = biological target: soluble form of vesicular stomatitis virus (VSV) glycoprotein G ectodomain (Gth, aa residues 1–422) (vesicular stomatitis virus (Mudd-Summer strain, Indiana serotype)); test: AUC
[3] = biological target: soluble form of vesicular stomatitis virus (VSV) glycoprotein G ectodomain (Gth, aa residues 1–422) (vesicular stomatitis virus (Mudd-Summer strain, Indiana serotype)); test: AUC; sedimentation velocity, pH 6.7, Gth at 0.4 mg/ml, 45,000 rpm, 15°C

Question: With “soluble form of vesicular stomatitis virus (VSV) glycoprotein G ectodomain (Gth, aa residues 1–422) (domain or fragment)” as the substance, how does the fractional concentration of the 10.0 S species at 1.6 mg/ml, pH 6.7 [1] read?
Answer: The fractional concentration of the 10.0 S species at 1.6 mg/ml, pH 6.7 was 40%.

Question: And the fractional concentration of the 21.0 S species at 1.6 mg/ml, pH 6.7 [1]?
Answer: Its fractional concentration of the 21.0 S species at 1.6 mg/ml, pH 6.7 is 24%.

Question: What about the fraction of the species of about 320 kDa at pH 6.0 [2] of the same substance?
Answer: Its fraction of the species of about 320 kDa at pH 6.0 is 30%.

Question: And the fraction of the species of about 1,600 kDa at pH 6.0 [2]?
Answer: Its fraction of the species of about 1,600 kDa at pH 6.0 is 70%.

Question: What about the fractional concentration of the 10.0 S species at 0.4 mg/ml, pH 5.7 [2] of the same substance?
Answer: The fractional concentration of the 10.0 S species at 0.4 mg/ml, pH 5.7 was 71%.

Question: What about the fractional concentration of the 10.0 S species at 1.6 mg/ml, pH 5.7 [2] of the same substance?
Answer: The fractional concentration of the 10.0 S species at 1.6 mg/ml, pH 5.7 was 55%.

Question: And the fractional concentration of the 21.0 S species at 0.4 mg/ml, pH 5.7 [2]?
Answer: Its fractional concentration of the 21.0 S species at 0.4 mg/ml, pH 5.7 is 29%.

Question: What about the fractional concentration of the 21.0 S species at 1.6 mg/ml, pH 5.7 [2] of the same substance?
Answer: Its fractional concentration of the 21.0 S species at 1.6 mg/ml, pH 5.7 is 45%.

Question: And the fractional concentration of the 21.0 S species at 0.4 mg/ml, pH 6.7 [3]?
Answer: The fractional concentration of the 21.0 S species at 0.4 mg/ml, pH 6.7 was 13%.
